{"source": "patent US6884866B2", "about": "“Bulk drying and the effects of inducing bubble nucleation” (Avant Immunotherapeutics, Inc., priority 2001, dated 2005)", "assay": "Urokinase activity after foam drying and storage", "assay_type": "physicochemical", "description": "(7) Freeze-dried samples of Urokinase were rehydrated with 2 ml of 40 wt % sucrose. The solutions were then transferred to 20 ml sterilized glass vials for future preservation by drying. Before drying, the vials were covered with gray slotted rubber stoppers. The vials were dried inside a vacuum chamber. The vials were sitting on the surface of a stainless steel shelf inside the chamber. The shelf temperature was controlled by circulating ethylene glycol/water antifreeze at a controlled temperature inside the shelf. Before the vacuum was applied the shelf temperature was decreased to 5° C. Then the hydrostatic pressure inside the chamber was decreased to 0.5 Torr. Under such conditions, the suspension boiled for 30 min. […] Visually, under these experimental conditions, stable dry foams were formed inside the vials within 3 hours. After an additional 12 hours of drying at room temperature, the temperature was increased to 45° C. and maintained for an additional 24 hours. After that the chamber was filled with dry N2 gas, the rubber stoppers were pushed down and the vials were sealed with aluminum crimp seals.\nThe samples were assayed immediately after drying and after 30 days of storage at 40° C. After drying the Urokinase, activity was 93% of the initial activity. […]", "data": [{"substance": "Urokinase", "values": [{"measurement": "Urokinase activity, % of the initial activity", "setting": "after 30 days of storage at 40° C.", "result": 90, "unit": "%"}, {"measurement": "Urokinase activity, % of the initial activity", "setting": "immediately after drying (40 wt % sucrose, maximum 45° C.)", "result": 93, "unit": "%"}]}]}
